Source: patent US20080113383A1, “Hif Prolyl Hydroxylase Activity Assay” (Fibro Gen, Inc., priority 2004, published 2008)
Values joined by “and” are separate entries in the source; they are usually repeats but may differ in a detail not shown here. Identical values can stand only once. Where no end group is shown, it is not given here. [ ]: non-standard residue; d: D form. ΔPro = O=C(O)[C@@H]1C=CCN1; Aze = O=C(O)[C@@H]1CCN1

Columns and labels:
Assay type in all cases: biochemical
[1] = molecular target: T1, EGLN1 (Homo sapiens, UniProt Q9GZT9); assay: Standard reaction (I): EGLN enzyme activity with hydroxylatable peptide substrate, 14CO2 release from 2-oxo[1-14C]glutaric acid; conditions: for specificity of peptide for EGLN1, EGLN2 and EGLN3 compared: standard reaction (I) peptides, from Table 1 and FIGS. 3, 4
T1 sequence (Q9GZT9 whole entry): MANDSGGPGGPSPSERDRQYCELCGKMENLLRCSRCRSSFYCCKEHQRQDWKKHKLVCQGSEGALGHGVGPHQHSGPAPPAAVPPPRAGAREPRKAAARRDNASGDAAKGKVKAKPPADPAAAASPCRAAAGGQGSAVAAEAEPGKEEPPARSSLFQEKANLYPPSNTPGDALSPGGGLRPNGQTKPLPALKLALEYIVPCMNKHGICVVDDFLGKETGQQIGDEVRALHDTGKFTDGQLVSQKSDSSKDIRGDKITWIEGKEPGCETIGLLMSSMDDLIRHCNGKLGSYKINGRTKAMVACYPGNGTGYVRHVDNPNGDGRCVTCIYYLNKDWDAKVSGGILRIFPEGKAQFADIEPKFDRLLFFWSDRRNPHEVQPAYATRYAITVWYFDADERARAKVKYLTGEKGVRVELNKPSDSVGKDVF
Excerpt: (§1) Enzyme activity can be measured by monitoring the consumption of one or more reaction substrates, or accumulation of one or more reaction products. For example, enzyme activity in either the standard reaction (I) or the modified reaction (II) can be measured using a modified version of a method described by Kivirikko and Myllyla (1982, Methods Enzymol 82:245-304), which is based on the decarboxylation of 2-oxo[1-^14C]glutaric acid. In this method, radioactive ^14CO2 produced during the reaction is captured on base-impregnated filter papers and the captured radioactivity determined by liquid scintillation counting. In a particular embodiment, enzyme activity in standard reaction (I) was measured as described in Example 2 (infra).
(§2) In DLD19, methionine (M) residues were changed to alanine (A) residues due to potential oxidation of methionine during the assay reaction. Peptides used in the assay may additionally contain N-terminal and/or C-terminal blocking groups, e.g., N-terminal acetyl groups, C-terminal amide groups, etc. Enzyme activity in the presence of substrate peptides is provided supra as percent enzyme activity relative to enzyme activity in the presence of control peptide DTD20.
(§3) In all experiments, percent enzyme activity, e.g., as measured by substrate turnover, was less than 30% to insure all data obtained were in the linear range. Enzyme activity in standard reaction (I) was measured in a reaction volume of 1 mL containing EGLN enzyme preparation (10-400 μL), 0.05 μmole hydroxylatable peptide substrate, 0.1 μmole of 2-oxo[1-^14C]glutaric acid (160,000 dpm), 1 μmole of ascorbic acid, 60 μg of catalase and 50 μmole of HEPES buffer adjusted to pH 7.4 at 25° C. Optionally, 0.04 μmole FeSO4 was also be added to the reaction mix. Reactions were carried out at 37° C. for 20 minutes. In various reactions, ascorbate was replaced by 0.1 to 15 mM potassium ferrocyanide. Results are provided in Table 1 (supra) and FIGS. 3 and 4.

[2] = molecular target: EGLN3 (Homo sapiens, UniProt Q9H6Z9); assay: as above
EGLN3, sequence (Q9H6Z9 whole entry): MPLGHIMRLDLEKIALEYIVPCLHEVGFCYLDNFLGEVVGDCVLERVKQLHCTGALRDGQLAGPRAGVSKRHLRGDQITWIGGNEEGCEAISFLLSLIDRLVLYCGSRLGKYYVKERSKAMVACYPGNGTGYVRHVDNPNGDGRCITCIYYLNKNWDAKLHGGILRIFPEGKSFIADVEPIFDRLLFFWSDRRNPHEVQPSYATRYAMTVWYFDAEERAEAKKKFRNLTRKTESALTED
Excerpt: as §1, §2, §3

[3] = molecular target: EGLN2 (Homo sapiens, UniProt Q96KS0); assay: as above; conditions: Table 1; enzyme activity relative to control peptide DTD20; 37° C., 20 minutes, pH 7.4
EGLN2, sequence (Q96KS0 whole entry): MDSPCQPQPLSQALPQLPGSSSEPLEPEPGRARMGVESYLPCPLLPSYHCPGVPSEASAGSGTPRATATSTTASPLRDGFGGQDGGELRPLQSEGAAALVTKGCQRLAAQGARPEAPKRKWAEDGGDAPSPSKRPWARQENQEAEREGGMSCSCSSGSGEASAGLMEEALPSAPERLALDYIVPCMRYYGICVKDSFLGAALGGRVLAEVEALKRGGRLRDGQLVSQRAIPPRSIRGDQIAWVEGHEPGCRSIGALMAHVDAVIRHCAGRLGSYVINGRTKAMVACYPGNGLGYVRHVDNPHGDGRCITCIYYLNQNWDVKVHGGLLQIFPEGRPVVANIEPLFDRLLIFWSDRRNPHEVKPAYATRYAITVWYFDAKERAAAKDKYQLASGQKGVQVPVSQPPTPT
Excerpt: as §1, §2, §3

[4] = molecular target: T1, EGLN1; assay: Modified reaction (II): EGLN enzyme activity with non-hydroxylatable proline-analog peptide and reducing agent; conditions: modified reaction (II) peptides, from Tables 3, 4 and FIGS. 3, 4
Excerpt: The peptides shown in Table 3, which retain measurable activity in the present assay, are specifically contemplated for use in assays disclosed herein. These peptides are used in a reaction additionally requiring co-substrate 2-oxoglutarate and a reducing agent, e.g., ascorbate; an EGLN enzyme, and oxygen, as described below. The reaction may also include Fe^2+. The reaction proceeds according to the modified reaction (II), in which 2-oxoglutarate is converted to succinate and carbon dioxide, and the reducing agent is subsequently oxidized, e.g., ascorbate is oxidized to dehydroascorbate. […]
In still other embodiments, enzyme activity within the modified reaction (II) may be measured by disappearance of the reduced form of the reducing agent or appearance of the oxidized form of the agent. […] For example, when ascorbate is used in modified reaction (II), disappearance of ascorbate and/or appearance of dehydroascorbate may be measured, e.g., using HPLC. In particular embodiments, ascorbate may be added to modified reaction (II) in limiting quantity, and ascorbate is regenerated during the reaction with concomitant oxidation of NADH to NAD^+ using a modification of the method described by Diliberto and Allen (1981, J Biol Chem 256:3385-3393). […] HIF-PH activity is measured indirectly by consumption of NADH, which produces a reduction in absorbance at a wavelength of 340 nm. […]

[5] = Table 1, enzyme activity relative to control peptide DTD20, 37° C., 20 minutes, pH 7.4

DTDLDWEMVSpYIPADDDFQ (DTDLDWEMVSPYIPADDDFQ; not fully specified (residue 11); printed as DTDLDWEMVSpYIPADDDFQ) [SEQ ID NO 90]
hydroxylation of peptide by EGLN1 [1]: readily hydroxylated
hydroxylation of peptide by EGLN3 [2]: readily hydroxylated

DTDLDMEALApYIPADDDFQ (DTDLDMEALAPYIPADDDFQ; not fully specified (residue 11); printed as DTDLDMEALApYIPADDDFQ) [SEQ ID NO 13]
specificity of peptide for EGLN1, EGLN2 and EGLN3 compared [1]: higher specificity for EGLN3 than for EGLN1 and EGLN2

DTDLDWEAVSpYIPADDDFQ (DTDLDWEAVSPYIPADDDFQ; not fully specified (residue 11); printed as DTDLDWEAVSpYIPADDDFQ) [SEQ ID NO 91]
hydroxylation of peptide by EGLN1 [1]: readily hydroxylated
hydroxylation of peptide by EGLN3 [2]: readily hydroxylated

DTDLDYEMIApYIPADDDFQ (DTDLDYEMIAPYIPADDDFQ; not fully specified (residue 11); printed as DTDLDYEMIApYIPADDDFQ) [SEQ ID NO 89]
hydroxylation of peptide by EGLN1 [1]: readily hydroxylated
hydroxylation of peptide by EGLN3 [2]: readily hydroxylated

DTDLDIEALApYIPADDDFQ (DTDLDIEALAPYIPADDDFQ; not fully specified; printed as DTDLDIEALApYIPADDDFQ) [SEQ ID NO 24]
specificity of peptide for EGLN1, EGLN2 and EGLN3 compared [1]: higher specificity for EGLN3 than for EGLN1 and EGLN2

DTDLDFEALApYIPADDDFQ (DTDLDFEALAPYIPADDDFQ; not fully specified; printed as DTDLDFEALApYIPADDDFQ) [SEQ ID NO 19]
specificity of peptide for EGLN1, EGLN2 and EGLN3 compared [1]: higher specificity for EGLN3 than for EGLN1 and EGLN2

45 (DTDLDTEALAPYIPADDDFQ) [compound 45]
Activity (%) EGLN1 [1, 5]: 25.67% and 23.36%
Activity (%) EGLN2 [3]: 20.49% and 18.04%
Activity (%) EGLN3 [2, 5]: 64.55% and 60.23%

DTDLDLEALA8YIPADDDFQ (DTDLDLEALA[Aze]YIPADDDFQ) [SEQ ID NO 63, 8 = L-azetidine-2-carboxylate in place of the hydroxylated proline]
specificity of proline-analog peptide for EGLN1, EGLN2 and EGLN3 compared [4]: higher specificity for EGLN3 than for EGLN1 and EGLN2

DTDLDWEMVApYIPADDDFQ (DTDLDWEMVAPYIPADDDFQ; not fully specified (residue 11); printed as DTDLDWEMVApYIPADDDFQ) [SEQ ID NO 92]
hydroxylation of peptide by EGLN1 [1]: readily hydroxylated
hydroxylation of peptide by EGLN3 [2]: readily hydroxylated

DTDLDLEALA4YIPADDDFQ (DTDLDLEALA[ΔPro]YIPADDDFQ) [SEQ ID NO 62, 4 = 3,4-dehydroproline in place of the hydroxylated proline]
specificity of proline-analog peptide for EGLN1, EGLN2 and EGLN3 compared [4]: higher specificity for EGLN1 and EGLN2 than for EGLN3

DTDLDLEARApYIPADDDFQ (DTDLDLEARAPYIPADDDFQ; not fully specified; printed as DTDLDLEARApYIPADDDFQ) [SEQ ID NO 15]
specificity of peptide for EGLN1, EGLN2 and EGLN3 compared [1]: higher specificity for EGLN1 and EGLN2 than for EGLN3
